Assay results as given in the supplement of paper PMC12783771.
± gives the standard deviation of the averaged measurements.

B1: library; numbered along this chain (parent)
chain: MNIQIGELAKRTACPVVTIRFYEQEGLLPPPGRSRGNFRLYGEEHVERLQFIRHCRSLDMPLSDVRTLLSYRKRPDQDCGEVNMLLDEHIRQVESRIGALLELKHHLVELREACSGARPAQSCGILQGLSDCVCDTRGTTAHPSD

Key:
[1] = variants of: B1; assay: sfGFP reporter fluorescence (15 h) (µM FITC); higher = higher leak; conditions: library round: Round 1; ligand: none
Description: (§1)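 Cell-free biosensing: 1 µL Echo-assembled CFE reactions with linear PbrR variant templates (5 nM) and pPbrR-sfGFP reporter, with 1 µM Pb, 30 µM Zn or no ligand; endpoint sfGFP fluorescence after 15 h at 30 °C calibrated as µM FITC. Round 1 ML-predicted PbrR mutants; 3 biological replicates.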

[2] = variants of: B1; assay: sfGFP reporter fluorescence (15 h) (µM FITC); higher = stronger transcriptional activation; conditions: library round: Round 1
Description: as §1

Variant | sfGFP reporter fluorescence [1] | sfGFP reporter fluorescence ([2]; ligand: 1 µM Pb) | sfGFP reporter fluorescence ([2]; ligand: 30 µM Zn)
K104V R111A | 0.0644 ± 0.0027 | 0.096 ± 0.0033 | 0.356 ± 0.013
K104V R111L | 0.0656 ± 0.0016 | 0.0694 ± 0.0047 | 0.0976 ± 0.0039
K104V R111D | 0.0612 ± 0.0019 | 0.0619 ± 0.0015 | 0.0723 ± 0.0033
R96S | 0.0636 ± 0.0021 | 0.0924 ± 0.0049 | 0.328 ± 0.015
R96Q | 0.0632 ± 0.0037 | 0.0982 ± 0.0089 | 0.455 ± 0.0056
R96G | 0.0668 ± 0.0022 | 0.076 ± 0.004 | 0.195 ± 0.012
N83T P143W | 0.0657 ± 0.0018 | 0.07806 ± 0.00064 | 0.131 ± 0.0017
N83T P143R | 0.0618 ± 0.0013 | 0.0709 ± 0.0047 | 0.145 ± 0.0075
D131C P143A | 0.0583 ± 0.0013 | 0.0696 ± 0.0017 | 0.141 ± 0.011
D131C P143R | 0.0674 ± 0.0018 | 0.0812 ± 0.0024 | 0.196 ± 0.0083
N83T E109A P143Y | 0.0646 ± 0.0022 | 0.0776 ± 0.0092 | 0.179 ± 0.017
L107N G128M | 0.0744 ± 0.0042 | 0.225 ± 0.02 | 0.917 ± 0.088
M84A G124A | 0.0619 | 0.064 ± 0.0056 | 0.143 ± 0.0022
L100V G128I | 0.0908 ± 0.0036 | 0.322 ± 0.035 | 1.24 ± 0.03
E112I D131C | 0.06499 ± 0.00042 | 0.0652 ± 0.002 | 0.083 ± 0.0019
N83T H89Q | 0.0608 ± 0.0025 | 0.0955 ± 0.011 | 0.258 ± 0.013
K104R D135A | 0.0652 ± 0.0026 | 0.0866 ± 0.004 | 0.368 ± 0.043
V108R P143M | 0.0636 ± 0.002 | 0.0724 ± 0.0057 | 0.376 ± 0.019
D131L D135S | 0.0691 ± 0.0011 | 0.0943 ± 0.002 | 0.588 ± 0.05
D131L D135A | 0.0688 ± 0.0015 | 0.0969 ± 0.027 | 0.476 ± 0.055
G128L D135A | 0.075 ± 0.0011 | 0.155 ± 0.011 | 0.981 ± 0.14
M84A D131H | 0.0584 ± 0.0011 | 0.0712 ± 0.002 | 0.463 ± 0.061

Variant | sfGFP reporter fluorescence [1] | sfGFP reporter fluorescence ([2]; ligand: 1 µM Pb) | sfGFP reporter fluorescence ([2]; ligand: 30 µM Zn)
D131T D135A | 0.0636 ± 0.0011 | 0.08075 ± 0.00021 | 0.365 ± 0.0092
R111F E112A | 0.05962 ± 0.00021 | 0.0657 ± 0.00092 | 0.22 ± 0.021
E109A R111L | 0.06463 ± 0.00021 | 0.0688 ± 0.0022 | 0.1654 ± 0.00092
N83T E109L P143R | 0.0641 ± 0.00073 | 0.0812 ± 0.0015 | 0.183 ± 0.0048
V108L C114L | 0.05962 ± 0.00056 | 0.0571 ± 0.003 | 0.0589 ± 0.0018
H105E | 0.0625 ± 0.0011 | 0.06829 ± 0.00056 | 0.31 ± 0.016
G128I D135A | 0.0699 ± 0.0036 | 0.12 ± 0.0083 | 0.64 ± 0.032
G128I D135P | 0.074 ± 0.0013 | 0.172 ± 0.013 | 0.904 ± 0.084
S115G D131C | 0.0572 ± 0.0013 | 0.0619 ± 0.0016 | 0.0992 ± 0.0037
N83T R96A | 0.0645 ± 0.00037 | 0.0756 ± 0.0031 | 0.0938 ± 0.0026
I90L D135A | 0.0614 ± 0.0011 | 0.0634 ± 0.0038 | 0.207 ± 0.0065
L129V D135A | 0.0641 ± 0.00097 | 0.0619 ± 0.003 | 0.0639 ± 0.0027
G128I C134E | 0.0745 ± 0.0014 | 0.139 ± 0.0047 | 1.38 ± 0.067
Q127A D135P | 0.0621 ± 0.0012 | 0.0781 ± 0.0053 | 0.244 ± 0.021
L126I D131C | 0.0635 ± 0.0019 | 0.0635 ± 0.0022 | 0.0699 ± 0.0022
E109A D131C | 0.0641 ± 0.0019 | 0.0804 ± 0.0035 | 0.462 ± 0.0051
I125L D131C | 0.06 ± 0.0018 | 0.0617 ± 0.0015 | 0.0593 ± 0.0014
D131A C134V | 0.0781 ± 0.0011 | 0.12 ± 0.0056 | 1.24 ± 0.15
K104V V108K | 0.109 ± 0.0044 | 0.316 ± 0.063 | 1.44 ± 0.15
K104V V108R | 0.109 ± 0.0031 | 0.386 ± 0.041 | 1.52 ± 0.1
G128L C134E | 0.0749 ± 0.0015 | 0.135 ± 0.0039 | 1.36 ± 0.11
N83T L107C G128I | 0.195 ± 0.0097 | 0.702 ± 0.17 | 1.75 ± 0.2

Variant | sfGFP reporter fluorescence [1] | sfGFP reporter fluorescence ([2]; ligand: 1 µM Pb) | sfGFP reporter fluorescence ([2]; ligand: 30 µM Zn)
N83T L107C G128M | 0.432 ± 0.012 | 1.31 ± 0.1 | 2.39 ± 0.53
L85Y K104V | 0.0606 ± 0.0011 | 0.0629 ± 0.0018 | 0.223 ± 0.011
E112I D135A | 0.063 ± 0.0023 | 0.06438 ± 0.00042 | 0.176 ± 0.0035
Q121A D135A | 0.0661 ± 0.0031 | 0.0888 ± 0.0096 | 0.743 ± 0.11
L85I P143M | 0.058 ± 0.0019 | 0.0691 ± 0.0018 | 0.401 ± 0.029
E109D D135R | 0.06377 ± 0.00037 | 0.0733 ± 0.0076 | 0.422 ± 0.031
E109I R111L | 0.0627 ± 0.0016 | 0.0717 ± 0.003 | 0.217 ± 0.0064
N83T I90S | 0.0629 ± 0.0014 | 0.0715 ± 0.0022 | 0.109 ± 0.0024
N83T E109F | 0.0638 ± 0.0013 | 0.0862 ± 0.0036 | 0.315 ± 0.0065
L107C G124A G128M | 0.371 ± 0.0094 | 1.13 ± 0.051 | 2.08 ± 0.19
R96A K104V G128M | 0.0678 ± 0.0023 | 0.0902 ± 0.0061 | 0.257 ± 0.008
R111A D131N | 0.066 ± 0.0013 | 0.117 ± 0.018 | 0.829 ± 0.15
V108L R111L | 0.0611 ± 0.00085 | 0.0617 ± 0.0045 | 0.114 ± 0.0047
N83T K104R D135K | 0.0682 ± 0.00097 | 0.0845 ± 0.0083 | 0.149 ± 0.0056
D131C D135A | 0.0605 ± 0.0013 | 0.0742 ± 0.0019 | 0.221 ± 0.02
G128H P143A | 0.061 ± 0.0027 | 0.0728 ± 0.0023 | 0.121 ± 0.0099
G128H P143W | 0.0661 ± 0.0013 | 0.086 ± 0.0043 | 0.159 ± 0.012
L107C D131A | 0.73 ± 0.082 | 1.4 ± 0.048 | 2.23 ± 0.17
G128S D135A | 0.0652 ± 0.0016 | 0.0925 ± 0.0068 | 0.604 ± 0.015
N83Y R111A | 0.064 ± 0.00092 | 0.0721 ± 0.0067 | 0.0742 ± 0.00085
N83Y R111D | 0.06194 ± 0.00037 | 0.0568 ± 0.0025 | 0.0571 ± 0.0031
N83Y R111L | 0.06133 ± 0.00056 | 0.0694 ± 0.0053 | 0.0698 ± 0.0019

Variant | sfGFP reporter fluorescence [1] | sfGFP reporter fluorescence ([2]; ligand: 1 µM Pb) | sfGFP reporter fluorescence ([2]; ligand: 30 µM Zn)
V108I D131C | 0.0613 ± 0.0026 | 0.0713 ± 0.0046 | 0.134 ± 0.0021
E94F K104V G128H | 0.0634 ± 0.002 | 0.0647 ± 0.0031 | 0.0833 ± 0.0084
M84A I97G | 0.05986 ± 0.00042 | 0.0617 ± 0.0011 | 0.218 ± 0.017
G128A L129M | 0.0617 ± 0.0017 | 0.0701 ± 0.0044 | 0.257 ± 0.034
N83T R111A | 0.0564 ± 0.00097 | 0.0834 ± 0.0021 | 0.341 ± 0.031
N83T R111F | 0.0639 ± 0.0014 | 0.0644 ± 0.004 | 0.085 ± 0.0026
N83T R111D | 0.0624 ± 0.00076 | 0.06 ± 0.0029 | 0.068 ± 0.0024
N83T R111L | 0.0571 ± 0.0031 | 0.0683 ± 0.0036 | 0.167 ± 0.011
L100I | 0.0611 ± 0.0014 | 0.0649 ± 0.0013 | 0.216 ± 0.019
D131S P143A | 0.0606 ± 0.0013 | 0.07916 ± 0.00037 | 0.373 ± 0.042
M84Q R111L | 0.0624 ± 0.0054 | 0.0651 ± 0.0026 | 0.122 ± 0.0058
K104V L107G G128M | 0.0645 ± 0.0022 | 0.0955 ± 0.013 | 0.29 ± 0.028
G128I D131S | 0.0878 ± 0.004 | 0.253 ± 0.025 | 1.43 ± 0.2
G128I D131C | 0.0762 ± 0.0028 | 0.146 ± 0.018 | 0.618 ± 0.011
G128I D131E | 0.0825 ± 0.0029 | 0.203 ± 0.022 | 1.34 ± 0.037
L107I C114R | 0.059 ± 0.0019 | 0.0512 ± 0.0044 | 0.0514 ± 0.00092
G128H D131C | 0.0654 ± 0.0018 | 0.0887 ± 0.01 | 0.187 ± 0.02
L107C G128I D135A P143K | 0.787 ± 0.091 | 1.52 ± 0.079 | 2.47 ± 0.14
I97S G128I | 0.0694 ± 0.0013 | 0.136 ± 0.023 | 0.89 ± 0.023
R96A K104V | 0.068 ± 0.0015 | 0.0754 ± 0.0017 | 0.118 ± 0.0059
R111I C134P | 0.0589 ± 0.0022 | 0.0683 ± 0.0031 | 0.228 ± 0.0041
N83T E94R | 0.0643 ± 0.0013 | 0.0792 ± 0.002 | 0.128 ± 0.0019
